Laboratory results taken from patent US20240360228A1 (BIOLEGEND, published 2024).
Each block holds one molecule with its values, some of them ahead of it.

What was measured:
human CCR8 [1] = biological target: T1, human CCR8 (human, UniProt P51685 1-355); experiment: flow, PBMC CCR8+CD3+; PE-L263G8 staining after isotype block
T1 construct: Native CCR8 on human PBMC (CCR8+ CD3+ or CCR8+ CD4+ lymphocytes); also called chemokine (C-C motif) receptor 8

human CCR8 [2] = biological target: T1, human CCR8; experiment: flow blocking, PBMC CCR8+CD4+; competitor PE-433H
In short: (§1)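 Human PBMC (100 μL suspension) were pre-blocked with 10 μg of each unlabelled anti-CCR8 antibody or isotype control. Cells were then stained 15 min in the dark with 0.25 μg of the PE-conjugated competitor antibody plus anti-CD4 or anti-CD3. Read-out by flow cytometry as MFI on CCR8+CD4+ or CCR8+CD3+ lymphocytes.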

human CCR8 [3] = biological target: T1, human CCR8; experiment: flow blocking, PBMC CCR8+CD3+; competitor PE-433H
In short: (§2)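 Read-out: PE MFI of CCR8+ CD4+ or CD3+ lymphocytes by flow cytometry. Cell suspension was first blocked with 10 μg unlabeled antibody or isotype, then given 0.25 μg PE-labelled competitor with anti-CD4/CD3 for 15 min, dark, washed twice. Percent blocking is 100 minus MFI ratio versus isotype.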

human CCR8 [4] = biological target: T1, human CCR8; experiment: flow blocking, PBMC CCR8+CD3+; competitor PE-AB10
In short: as §2

human CCR8 [5] = biological target: T1, human CCR8; experiment: flow blocking, PBMC CCR8+CD4+; competitor PE-AB5
In short: (§3)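 First, cell suspension was incubated with 10 μg blocking antibody or isotype. Next, 0.25 μg PE-labelled antibody plus anti-CD4 APC or anti-CD3 was added for 15 min in the dark, followed by two washes. Finally, MFI of CCR8+ lymphocytes was acquired and converted to percent blocking against isotype.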

human CCR8 [6] = biological target: T1, human CCR8; experiment: flow blocking, PBMC CCR8+CD3+; competitor PE-AB12
In short: as §2

human CCR8 [7] = biological target: T1, human CCR8; experiment: flow blocking, PBMC CCR8+CD4+; competitor PE-AB14
In short: as §1

human CCR8 [8] = biological target: T1, human CCR8; experiment: flow blocking, PBMC CCR8+CD3+; competitor PE-AB13
In short: as §2

human CCR8 [9] = biological target: T1, human CCR8; experiment: flow blocking, PBMC CCR8+CD3+; competitor PE-L263G8
In short: as §2

human CCR8 [10] = biological target: T1, human CCR8; experiment: flow blocking, PBMC CCR8+CD4+; competitor PE-AB11
In short: as §3

human CCR8 [11] = biological target: T1, human CCR8; experiment: flow blocking, PBMC CCR8+CD4+; competitor PE-AB12
In short: as §3

human CCR8 [12] = biological target: T1, human CCR8; experiment: flow blocking, PBMC CCR8+CD3+; competitor PE-AB14
In short: as §2

human CCR8 [13] = biological target: T1, human CCR8; experiment: flow blocking, PBMC CCR8+CD3+; competitor PE-AB6
In short: as §2

human CCR8 [14] = biological target: T1, human CCR8; experiment: flow blocking, PBMC CCR8+CD3+; competitor PE-AB5
In short: as §2

human CCR8 [15] = biological target: T1, human CCR8; experiment: flow blocking, PBMC CCR8+CD4+; competitor PE-AB1
In short: as §3

human CCR8 [16] = biological target: T1, human CCR8; experiment: flow blocking, PBMC CCR8+CD3+; competitor PE-AB11
In short: as §2

human CCR8 [17] = biological target: T1, human CCR8; experiment: flow blocking, PBMC CCR8+CD4+; competitor PE-AB2
In short: as §3

human CCR8 [18] = biological target: T1, human CCR8; experiment: flow blocking, PBMC CCR8+CD4+; competitor PE-AB4
In short: as §3

human CCR8 [19] = biological target: T1, human CCR8; experiment: flow blocking, PBMC CCR8+CD4+; competitor PE-AB13
In short: as §1

human CCR8 [20] = biological target: T1, human CCR8; experiment: flow blocking, PBMC CCR8+CD3+; competitor PE-AB7
In short: as §2

human CCR8 [21] = biological target: T1, human CCR8; experiment: flow blocking, PBMC CCR8+CD3+; competitor PE-AB8
In short: as §2

human CCR8 [22] = biological target: T1, human CCR8; experiment: flow blocking, PBMC CCR8+CD4+; competitor PE-AB3
In short: as §3

human CCR8 [23] = biological target: T1, human CCR8; experiment: flow blocking, PBMC CCR8+CD4+; competitor PE-AB15
In short: as §3

human CCR8 [24] = biological target: T1, human CCR8; experiment: flow blocking, PBMC CCR8+CD4+; competitor PE-AB6
human CCR8 [25] = biological target: T1, human CCR8; experiment: flow blocking, PBMC CCR8+CD4+; competitor PE-AB10
In short: as §3

[26] = biological target: human chemokine (C-C motif) receptor 8 (CCR8) (human) (UniProt P51685); experiment: flow cytometry blocking, PBMC CCR8+ CD4+ cells; competitor PE-AB6 (its MFI is read)
human CCR8 [27] = biological target: T1, human CCR8; experiment: flow blocking, PBMC CCR8+CD3+; competitor PE-AB15
In short: as §2

[28] = biological target: T2, human chemokine (C-C motif) receptor 8 (CCR8) (human, UniProt P51685 1-355); experiment: flow cytometry blocking, PBMC CCR8+ CD4+ cells; competitor PE-AB14 (its MFI is read)
T2 construct: On human peripheral blood lymphocytes / PBMC (native) or on human CCR8 GFP-transfected Ba/F3 cells; also called hCCR8; human CCR8
Protocol: (§4) For blocking studies, 100 μL of the cell suspension were incubated with 10 μg purified isotype control, AB1, AB2, AB3, AB4, AB5, AB8, AB9, AB10, AB11, AB12, AB13, AB14, AB15, and Commercial ABI antibodies, or isotype control, as blocking agents.
(§5) After incubation with the blocking agent, the cells were incubated with 0.25 μg of the indicated PE-conjugated antibody plus anti-human CD4 APC or anti-human CD3 for another 15 minutes in the dark and then washed 2 times with Cell Staining Buffer, and acquired in a FACSCanto II flow cytometer (BD Biosciences); the data was analyzed using FCS Express (De Novo Software); MFI correspond to the CCR8+ CD4+ lymphocytes or CCR8+ CD3+ lymphocytes.
(§6) Percentage original MFI was calculated by dividing the MFI of samples blocked with AB1, AB2, AB3, AB4, AB5, AB6, AB7, AB8, AB9, AB10, AB11, AB12, AB13, AB14, AB15, and Commercial ABI antibodies, by the MFI of samples blocked with the corresponding isotype control. This value was subtracted from 100 to get a blocking percentage. The formula is shown below: […]

[29] = biological target: T2, human chemokine (C-C motif) receptor 8 …; experiment: cell-based or functional assay
[30] = biological target: T2, human chemokine (C-C motif) receptor 8 …; experiment: flow cytometry blocking, PBMC CCR8+ CD4+ cells; competitor PE-AB1 (its MFI is read)
Protocol: as §4, §5, §6

[31] = biological target: T2, human chemokine (C-C motif) receptor 8 …; experiment: flow cytometry blocking, PBMC CCR8+ CD4+ cells; competitor PE-AB12 (its MFI is read)
Protocol: as §4, §5, §6

[32] = biological target: T2, human chemokine (C-C motif) receptor 8 …; experiment: flow cytometry blocking, PBMC CCR8+ CD4+ cells; competitor PE-AB2 (its MFI is read)
Protocol: as §4, §5, §6

[33] = biological target: T2, human chemokine (C-C motif) receptor 8 …; experiment: flow cytometry blocking, PBMC CCR8+ CD4+ cells; competitor PE-AB13 (its MFI is read)
Protocol: as §4, §5, §6

[34] = biological target: T2, human chemokine (C-C motif) receptor 8 …; experiment: flow cytometry blocking, PBMC CCR8+ CD4+ cells; competitor PE-AB11 (its MFI is read)
Protocol: as §4, §5, §6

[35] = biological target: T2, human chemokine (C-C motif) receptor 8 …; experiment: cell-based or functional assay; remark: listed apart in the source
[36] = biological target: T2, human chemokine (C-C motif) receptor 8 …; experiment: flow cytometry blocking, PBMC CCR8+ CD4+ cells; competitor PE-AB15 (its MFI is read)
Protocol: as §4, §5, §6

[37] = biological target: T2, human chemokine (C-C motif) receptor 8 …; experiment: flow cytometry blocking, PBMC CCR8+ CD4+ cells; competitor PE-ABII (its MFI is read)
Protocol: as §4, §5, §6

[38] = biological target: T2, human chemokine (C-C motif) receptor 8 …; experiment: flow cytometry blocking, PBMC CCR8+ CD4+ cells; competitor PE-AB3 (its MFI is read)
Protocol: as §4, §5, §6

[39] = biological target: T2, human chemokine (C-C motif) receptor 8 …; experiment: flow cytometry blocking, PBMC CCR8+ CD4+ cells; competitor PE-AB5 (its MFI is read)
Protocol: as §4, §5, §6

[40] = biological target: T2, human chemokine (C-C motif) receptor 8 …; experiment: flow cytometry blocking, PBMC CCR8+ CD4+ cells; competitor PE-AB10 (its MFI is read)
Protocol: as §4, §5, §6

[41] = biological target: T2, human chemokine (C-C motif) receptor 8 …; experiment: flow cytometry blocking, PBMC CCR8+ CD4+ cells; competitor PE-AB6 (its MFI is read)
Protocol: as §4, §5, §6

[42] = biological target: T2, human chemokine (C-C motif) receptor 8 …; experiment: flow cytometry blocking, PBMC CCR8+ CD4+ cells; competitor PE-AB4 (its MFI is read)
Protocol: as §4, §5, §6

human CCR8 [43] = biological target: T1, human CCR8; experiment: flow, PBMC CCR8+CD3+; PE-433H staining after isotype block
human CCR8 [44] = biological target: T1, human CCR8; experiment: flow, PBMC CCR8+CD4+; PE-433H staining after isotype block

T1 sequence (P51685 whole entry): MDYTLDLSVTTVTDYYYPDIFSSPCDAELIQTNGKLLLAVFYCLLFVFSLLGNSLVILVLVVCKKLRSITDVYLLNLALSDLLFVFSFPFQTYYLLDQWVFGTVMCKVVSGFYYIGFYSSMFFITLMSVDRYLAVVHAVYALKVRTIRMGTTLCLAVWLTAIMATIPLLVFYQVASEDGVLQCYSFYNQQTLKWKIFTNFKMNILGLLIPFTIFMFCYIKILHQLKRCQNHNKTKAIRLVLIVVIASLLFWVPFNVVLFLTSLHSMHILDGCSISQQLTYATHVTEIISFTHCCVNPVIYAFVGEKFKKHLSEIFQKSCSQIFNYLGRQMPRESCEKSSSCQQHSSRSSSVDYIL
T2 sequence (P51685 whole entry): as above
human chemokine (C-C motif) receptor 8 (CCR8) (human), sequence (P51685 whole entry): as above

MFI (human CCR8 [1]): 674
Molecule: Commercial L263G8 (antibody)

% Blocking (human CCR8 [2]): 0% | % Blocking (human CCR8 [3]): 0% | % Blocking (human CCR8 [4]): 0% | % Blocking (human CCR8 [5]): 0% | % Blocking (human CCR8 [6]): 0% | % Blocking (human CCR8 [7]): 0% | % Blocking (human CCR8 [8]): 0% | % Blocking (human CCR8 [9]): 0% | % Blocking (human CCR8 [10]): 0% | % Blocking (human CCR8 [11]): 0% | % Blocking (human CCR8 [12]): 0% | % Blocking (human CCR8 [13]): 0% | % Blocking (human CCR8 [14]): 0% | % Blocking (human CCR8 [15]): 0% | % Blocking (human CCR8 [16]): 0% | % Blocking (human CCR8 [17]): 0% | % Blocking (human CCR8 [18]): 0% | % Blocking (human CCR8 [19]): 0% | % Blocking (human CCR8 [20]): 0% | % Blocking (human CCR8 [21]): 0% | % Blocking (human CCR8 [22]): 0% | % Blocking (human CCR8 [23]): 0% | % Blocking (human CCR8 [24]): 0% | % Blocking (human CCR8 [25]): 0% | % Blocking [26]: 0% | % Blocking (human CCR8 [27]): 0%
Molecule: isotype control (antibody)

% Blocking [28]: -1190% | MFI [28]: 11400 | % hCCR8-Ba/F3 - THP-1 complexes [29]: 1.12% | % Blocking [30]: -48.1% | MFI [30]: 971 | % Blocking [31]: 0.83% | MFI [31]: 968 | % Blocking [32]: -53.5% | MFI [32]: 1030 | % Blocking [33]: 7.44% | MFI [33]: 867 | % Blocking [34]: 25.3% | MFI [34]: 674 | ratio of Target/Control cells after AB11 plus complement [35]: 0.103 | % Blocking [36]: -75.1% | MFI [36]: 1390 | % Blocking [37]: 16.6% | MFI [37]: 924 | % Blocking [38]: -61.7% | MFI [38]: 1120 | % Blocking [39]: -36% | MFI [39]: 1020 | % Blocking [40]: 34.5% | MFI [40]: 661 | % Blocking [41]: -36.2% | MFI [41]: 1070 | % Blocking [42]: -53.4% | MFI [42]: 1050
B1: AB11 (antibody, V domains shown)
VH: EVQLVESGGGLVQPKGSLKLSCAASGFAFNTYAMNWVRQAPGKGLEWIARLRSKSNFYATYYADSVKDRFTISRDDSQSMLYLQMNNLKTEDTAVYYCVRGRELGPSYAMDYWGQGTSVTVSS
VL: DIVMTQAAPSVPVTPGESVSISCRSSKSLLHSNGNTYLYWFLQRPGQSPQLLIYRMSNLASGVPDRFSGSGSGTAFTLRISRVEAEDVGVYYCMQHLEYPYTFGGGTKLEIK
notes: Hybridoma monoclonal; also called antibody 11; clone 11

MFI (human CCR8 [43]): 886 | % Positive cells (human CCR8 [44]): 1.76%
B2: Commercial 433H (antibody, from another filing, V domains shown)
VH: EVQLVETGGGLVQPKGSLRLSCAASGFPFNTFAMNWVRQAPGKGLEWLARIRSKSNNYATYYADSVKDRFTISRDDSRRMLYLLMNNVKFEDTAIYYCVRGKENNYGYAMDYWGQGTSVTVSS
VL: DIVMTQAAPSVPVTPGESVSISCRSSQSLLHSNGNTYLYWFLQRPGQSPQLLIYRMSNLASGVPDRFSGSGSGTAFTLRISRVEAEDVGVYYCMQHLEYPFTFGIGTKLELKR
